The target of series [1] is Igf2bp1 (human) (UniProt Q9NZI8). Put plainly: competition. The following applies: MST/EMSA: 10 mM Tris pH 7.5, 100 mM NaCl, 0.1 mM EDTA, IGEPAL, tRNA, heparin, 0.5-2 mM DTT, room temperature (MST protein in PBST mixed 1:1); FP: 10 mM Tris pH …. (In general: Mobility shift assays separate free from complexed probe on a gel.)
Series [2] relates to Igf2bp1 (human). Put plainly: MST. As to conditions: MST/EMSA: 10 mM Tris pH 7.5, 100 mM NaCl, 0.1 mM EDTA, IGEPAL, tRNA, heparin, 0.5-2 mM DTT, room temperature (MST protein in PBST mixed 1:1), FP: 10 mM Tris pH ….
The test system of a further series is Igf2bp1 KH34 (human). Description: MST. The following applies: MST/EMSA: 10 mM Tris pH 7.5, 100 mM NaCl, 0.1 mM EDTA, IGEPAL, tRNA, heparin, 0.5-2 mM DTT, room temperature (MST protein in PBST mixed 1:1); FP: 10 mM Tris pH ….

pKd: −log10 of the molar value.

Sequence of Igf2bp1 (human) (UniProt Q9NZI8) (Q9NZI8 whole entry): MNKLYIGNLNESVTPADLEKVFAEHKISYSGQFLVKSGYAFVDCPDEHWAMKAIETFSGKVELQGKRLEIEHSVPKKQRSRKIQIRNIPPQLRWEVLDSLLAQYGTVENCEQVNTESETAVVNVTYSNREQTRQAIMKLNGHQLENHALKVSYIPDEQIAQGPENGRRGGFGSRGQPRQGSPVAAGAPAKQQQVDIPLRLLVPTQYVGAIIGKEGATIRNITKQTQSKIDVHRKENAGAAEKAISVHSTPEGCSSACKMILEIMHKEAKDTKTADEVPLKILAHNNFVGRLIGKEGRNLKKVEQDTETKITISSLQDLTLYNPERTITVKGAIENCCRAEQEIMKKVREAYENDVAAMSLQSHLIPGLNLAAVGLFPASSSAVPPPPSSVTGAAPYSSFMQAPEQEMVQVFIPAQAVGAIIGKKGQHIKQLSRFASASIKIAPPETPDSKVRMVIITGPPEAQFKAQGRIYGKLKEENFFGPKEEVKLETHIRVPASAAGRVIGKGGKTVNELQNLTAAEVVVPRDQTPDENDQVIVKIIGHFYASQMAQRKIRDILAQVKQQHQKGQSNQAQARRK

On to “GGGUGAGGAGUACAGUGCAAUGAGGGACCAGUACAUGAGGACUGGGGAGGGCUUUCUUUGUGUAUUUGCCAUAAAUAAUACUAAAUCAUUUGAAGAUAUUCACCAUUAUAGAGAACAAAUUAAAAGAGUUAAGGACUCUGAAGAUGUACCUAUGGUCCUAGUAGGAAAUAAAUGUGAUUUGCCUUCUAGAACAGUAGACACAA [Kras 2 RNA]”, for which the binding entry with Igf2bp1 (human) [1] is on record as “binds more weakly”.

What is called pKd is the Kd on a negative log10 scale, so that one unit is a factor of ten. A low value points to a large Kd. As for Kras 6 RNA, the pKd is 7.20 with Igf2bp1 (human) [2] (50 uM 7773); 6.92 in the series with Igf2bp1 (human) [2] (100 uM 7773); 7.70 with Igf2bp1 (human) [2]; 7.25 with Igf2bp1 (human) [2] (no compound); 6.70 with Igf2bp1 KH34 (human).

For the origin of these results see publication PMC8794255, “Small molecule inhibitor of Igf2bp1 represses Kras and a pro-oncogenic phenotype in cancer cells” (RNA Biology, 2021).
